Test results reported in article doi:10.1101/2020.12.15.422916.

Experiments:
[1] = target: C99-derived hexameric Aβ42 (cell-derived, from CHO cells transfected with C99) (human) (UniProt P05067); test: SDS-PAGE and western blot of SDS-stable assemblies
[2] = target: C99-derived hexameric Aβ42 (cell-derived, from CHO cells transfected with C99) (human) (UniProt P05067); test: GELFrEE 8100 electrophoretic fractionation with western blot
[3] = target: assembly-impaired variant of Aβ42 from CHO cells transfected with vC42 (F19S, G37D) (human); test: SDS-PAGE and western blot of SDS-stable assemblies
[4] = target: hexameric Aβ from CHO cells transfected with C99 carrying the Arctic (E22G) FAD mutation (human); test: SDS-PAGE and western blot of SDS-stable assemblies
[5] = target: hexameric Aβ from CHO cells transfected with C99 carrying the Dutch (E22Q) FAD mutation (human); test: SDS-PAGE and western blot of SDS-stable assemblies
[6] = target: hexameric Aβ from CHO cells transfected with C99 carrying the Flemish (A21G) FAD mutation (human); test: SDS-PAGE and western blot of SDS-stable assemblies
[7] = target: hexameric Aβ from CHO cells transfected with C99 carrying the Iowa (D23N) FAD mutation (human); test: SDS-PAGE and western blot of SDS-stable assemblies
[8] = target: hexameric Aβ from CHO cells transfected with C99 carrying the Italian (E22K) FAD mutation (human); test: SDS-PAGE and western blot of SDS-stable assemblies

“C99-derived hexameric Aβ42 (cell-derived, from CHO cells transfected with C99) (from UniProt P05067 672-770) (peptide)” gave a stoichiometry N [1] of 6 and a stoichiometry N [2] of 6.

Substance “assembly-impaired variant of Aβ42 from CHO cells transfected with vC42 (F19S, G37D) (peptide)” has a stoichiometry N [3] of 2.

“hexameric Aβ from CHO cells transfected with C99 carrying the Arctic (E22G) FAD mutation (peptide)” showed a stoichiometry N [4] of 6.

“hexameric Aβ from CHO cells transfected with C99 carrying the Dutch (E22Q) FAD mutation (peptide)” showed a stoichiometry N [5] of 6.

“hexameric Aβ from CHO cells transfected with C99 carrying the Flemish (A21G) FAD mutation (peptide)” gave a stoichiometry N [6] of 6.

In the case of “hexameric Aβ from CHO cells transfected with C99 carrying the Iowa (D23N) FAD mutation (peptide)”, the stoichiometry N [7] is reported as 6.

Work on “hexameric Aβ from CHO cells transfected with C99 carrying the Italian (E22K) FAD mutation (peptide)” yielded a stoichiometry N [8] of 6.
